# Assay: Atomic force microscopy studies for fibrillation (glucagon)
# Type: physicochemical
# Conditions: 287 mM, Milli-Q water pH 2, 37° C., 4 days
# Experimental: For atomic force microscopy experiments, 287 mM solutions of glucagon and glycoglucagon prepared by dissolving each of glucagon and glycoglucagon obtained in Example 9 in Milli-Q water, adjusted to pH 2 with HCl were incubated at 37° C. for four days. Topographic images of glucagon aggregates were collected with a Dimension iCon Atomic Force Microscopy (Bruker, Billerica, MA, USA). Tapping mode atomic force microscopy (AFM) images were recorded using silicon cantilevers (model RTESPA, Veeco, Santa Barbara, CA) with resonance frequency ˜300 kHz, nominal tip radius 8 nm and nominal spring constant 42 N/m.
# Representative AFM height images are shown in FIG. 11, of (A) glucagon (287 mM) and (B) glycoglucagon (287 mM) incubated at 37° C. for 4 days. The vertical colour scale is (A) 6 nm and (B) 3 nm. Scan size: 10×5 μm^2. Each of the images of FIG. 11 are representative of 3-5 scans at different locations with varying scan sizes from 1-10 micron.
substance,measurement,value
"native glucagon: human glucagon peptide (SEQ ID NO:5), synthesised by solid phase synthesis [reference compound]",fibril formation (AFM),forms fibrils

# — patent US20230365623A1, “DERIVATISATION OF PEPTIDES AND PROTEINS” (FLOREY INSTITUTE OF NEUROSCIENCE AND MENTAL HEALTH, priority 2020, published 2023)
